For the assay, the target named is T1, hPIEZO1 C-terminal segment (residues 1592-2521) with N-terminal GFP (human, UniProt Q92508 1592-2521).
T1 construct: PIEZO1, human, residues 1592-2521, second cistron (after the IRES element) of the bicistronic vector hPIEZO1 NtCt; the methods say amplified from amino acid 1591 to the end, the results print 1592 to 2251 and 1591-2251; C-terminus amplified from HekP1; inserted at a SpeI site after the GFP of pIRES2-EGFP, so GFP precedes the segment; also called Ct-EGFP; C-terminal fragment; source: HEK293, …
T1 sequence (looked up): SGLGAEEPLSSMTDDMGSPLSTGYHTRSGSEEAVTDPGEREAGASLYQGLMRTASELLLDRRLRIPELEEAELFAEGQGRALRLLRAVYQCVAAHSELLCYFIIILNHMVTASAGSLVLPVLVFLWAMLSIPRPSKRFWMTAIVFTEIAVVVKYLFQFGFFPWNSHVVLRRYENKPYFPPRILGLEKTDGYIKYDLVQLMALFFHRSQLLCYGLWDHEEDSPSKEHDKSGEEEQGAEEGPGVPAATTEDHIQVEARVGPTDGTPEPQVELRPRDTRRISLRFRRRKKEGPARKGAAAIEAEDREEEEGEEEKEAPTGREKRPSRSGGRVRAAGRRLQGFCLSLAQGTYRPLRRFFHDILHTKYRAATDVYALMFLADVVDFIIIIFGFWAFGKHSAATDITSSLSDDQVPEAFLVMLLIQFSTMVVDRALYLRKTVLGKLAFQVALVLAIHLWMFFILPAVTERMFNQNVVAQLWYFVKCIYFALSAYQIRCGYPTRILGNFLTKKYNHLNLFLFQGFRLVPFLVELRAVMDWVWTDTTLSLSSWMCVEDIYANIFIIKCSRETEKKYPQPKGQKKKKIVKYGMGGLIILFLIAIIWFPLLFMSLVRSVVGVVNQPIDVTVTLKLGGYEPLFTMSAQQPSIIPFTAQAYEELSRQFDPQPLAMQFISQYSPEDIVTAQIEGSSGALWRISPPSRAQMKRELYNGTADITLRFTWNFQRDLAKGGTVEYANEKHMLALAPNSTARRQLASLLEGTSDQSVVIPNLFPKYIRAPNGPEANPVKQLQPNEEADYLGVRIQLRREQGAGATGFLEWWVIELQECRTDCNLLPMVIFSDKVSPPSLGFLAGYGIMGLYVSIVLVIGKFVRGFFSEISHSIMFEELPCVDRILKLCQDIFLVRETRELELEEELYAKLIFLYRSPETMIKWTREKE
In words: FRET or BRET; living HEK293 cells transfected with bicistronic vectors; EGFP and mCherry fusions; FRET ratio = 680 nm emission excited at 480 nm over 680 nm emission excited at 560 nm. The note with it: partners not purified. For orientation: In BRET a luciferase serves as donor, and the signal depends on an acceptor being close.

B1: hPIEZO1 N-terminal segment (residues 1-1591) with mCherry linked at its end (domain or fragment, human, UniProt Q92508 1-1591, looked up)
chain: MEPHVLGAVLYWLLLPCALLAACLLRFSGLSLVYLLFLLLLPWFPGPTRCGLQGHTGRLLRALLGLSLLFLVAHLALQICLHIVPRLDQLLGPSCSRWETLSRHIGVTRLDLKDIPNAIRLVAPDLGILVVSSVCLGICGRLARNTRQSPHPRELDDDERDVDASPTAGLQEAATLAPTRRSRLAARFRVTAHWLLVAAGRVLAVTLLALAGIAHPSALSSVYLLLFLALCTWWACHFPISTRGFSRLCVAVGCFGAGHLICLYCYQMPLAQALLPPAGIWARVLGLKDFVGPTNCSSPHALVLNTGLDWPVYASPGVLLLLCYATASLRKLRAYRPSGQRKEAAKGYEARELELAELDQWPQERESDQHVVPTAPDTEADNCIVHELTGQSSVLRRPVRPKRAEPREASPLHSLGHLIMDQSYVCALIAMMVWSITYHSWLTFVLLLWACLIWTVRSRHQLAMLCSPCILLYGMTLCCLRYVWAMDLRPELPTTLGPVSLRQLGLEHTRYPCLDLGAMLLYTLTFWLLLRQFVKEKLLKWAESPAALTEVTVADTEPTRTQTLLQSLGELVKGVYAKYWIYVCAGMFIVVSFAGRLVVYKIVYMFLFLLCLTLFQVYYSLWRKLLKAFWWLVVAYTMLVLIAVYTFQFQDFPAYWRNLTGFTDEQLGDLGLEQFSVSELFSSILVPGFFLLACILQLHYFHRPFMQLTDMEHVSLPGTRLPRWAHRQDAVSGTPLLREEQQEHQQQQQEEEEEEEDSRDEGLGVATPHQATQVPEGAAKWGLVAERLLELAAGFSDVLSRVQVFLRRLLELHVFKLVALYTVWVALKEVSVMNLLLVVLWAFALPYPRFRPMASCLSTVWTCVIIVCKMLYQLKVVNPQEYSSNCTEPFPNSTNLLPTEISQSLLYRGPVDPANWFGVRKGFPNLGYIQNHLQVLLLLVFEAIVYRRQEHYRRQHQLAPLPAQAVFASGTRQQLDQDLLGCLKYFINFFFYKFGLEICFLMAVNVIGQRMNFLVTLHGCWLVAILTRRHRQAIARLWPNYCLFLALFLLYQYLLCLGMPPALCIDYPWRWSRAVPMNSALIKWLYLPDFFRAPNSTNLISDFLLLLCASQQWQVFSAERTEEWQRMAGVNTDRLEPLRGEPNPVPNFIHCRSYLDMLKVAVFRYLFWLVLVVVFVTGATRISIFGLGYLLACFYLLLFGTALLQRDTRARLVLWDCLILYNVTVIISKNMLSLLACVFVEQMQTGFCWVIQLFSLVCTVKGYYDPKEMMDRDQDCLLPVEEAGIIWDSVCFFFLLLQRRVFLSHYYLHVRADLQATALLASRGFALYNAANLKSIDFHRRIEEKSLAQLKRQMERIRAKQEKHRQGRVDRSRPQDTLGPKDPGLEPGPDSPGGSSPPRRQWWRPWLDHATVIHSGDYFLFESDSEEEEEAVPEDPRPSAQSAFQLAYQAWVTNAQAVLRRRQQEQEQARQEQAGQLPTGGGPSQEVEPAEGPEEAAAGRSHVVQRVLSTAQFLWMLGQALVDELTRWLQEFTRHHGTMSDVLRAERYLLTQELLQGGEVHRGVLDQLYTSQAEATLPGPTEAPNAPSTVS
notes: PIEZO1, human, residues 1-1591, first cistron of the bicistronic vector hPIEZO1 NtCt; also called Nt-mCherry; N-terminal fragment; source: HEK293, transfected with the bicistronic plasmid hPIEZO1 NtCt, in living cells; not shown: mCherry, C-terminal, kept
Turning to B1, the FRET ratio is 3.4.

These data come from paper PMC4786117, “Human PIEZO1 Ion Channel Functions as a Split Protein” (PLoS ONE, 2016).
